Columns and labels:
[1] = molecular target: A/Hong Kong/01/1968 (H3N2) HA (influenza A virus A/Hong Kong/01/1968 …, UniProt Q91MA7); experiment: ELISA
[2] = molecular target: SC/09 H1N1 HA protein (A/Sichuan/01/2009) (influenza A virus A/Sichuan/01/2009 …); experiment: ELISA

B1: 28-12 (antibody, V domains shown)
VH: EVQLVESGGGLVQPGGSLRLSCAASGFTFSTYNMNWVRQAPGKGLEWLSYISTSSNTIYYADSVKGRFTISRDNAKNSLFLQMNSLRDEDTAVYYCARDRGCSSTNCYVVGYYFYGMDVWGQGTTVTVSS
VL: DIQMTQSPSSVSASVGDRVTITCRASQGISSYLAWYQLKPGRAPKLLIYGATRLQSGVPSRFSGSGSGTDFTLTISGLQPEDFATYHCQQADSFPLTFGQGTRLEIK
[1]
  EC50: 0.0754 mg/L
[2]
  EC50: 0.0647 mg/L

Reference: publication PMC9061721 (2022)
